Assay results from the supplement of paper PMC10567573.

B1: INTS3 (parent)
chain: EEITEESLEESVGKPLYLIFRNLC
B2: STK38L (parent)
chain: FCIDSENRIGNSGVEEIKGHPFFE

Variants of: B1
Assay: protein stability index of a GFP-peptide fusion (GPS, HEK-293T) (PSI 1-6); higher = more stable
Conditions: c terminus: a fixed tail appended
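Note: lentivirally expressed fusions sorted by FACS into six bins by GFP to DsRed ratio, PSI derived from sequencing read proportions per bin multiplied by bin number.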

Protein stability index of substitutions, site by site:
E1: R 2.2, G 2.69, K 2.51, I 2.22, F 1.8, A 3.14, C 2.29, W 2.52, Y 2.3, V 2.31, T 2.6, Q 3.06, D 2.68, M 2.45, H 2.67, L 2.46, P 2.27, S 2.58, N 2.88
E2: A 1.98

Variants of: B2
Assay: as above
Conditions: c terminus: a fixed tail appended

Protein stability index, by site and new letter:
D4: G 2, P 3.47, H 2.8, L 1.25, R 1.7, V 2.22, F 1.46, T 2.44, W 1.84, I 2.24, S 1.3, Y 2.07, N 1.89, M 2.86
N11: G 2.35, V 2, Y 2.12, S 1.99, F 1.88, P 2.12, K 2.03, C 2.3, W 1.57, D 2.73, Q 2.73, R 2.31
S5: L 1.06, V 1.9, F 2.3, D 2.61, E 3.39, P 1.47, R 2.21, H 2.5, I 2.44, T 2.25, C 2, N 2.4
N7: W 4.28, L 2.24, C 1.06, R 1.56, T 2.17, V 1.22, Q 1.51, S 2.09, H 1.91, P 2.21, M 2.71
R8: L 2.34, N 2.94, E 3.56, S 2.55, A 2.67, D 3.9, M 2.67, Y 2.15, I 2.79, F 2.45, V 2.02
V14: Q 2.74, Y 2.96, W 1.96, K 2.72, T 2.29, A 3.13, F 1.6, G 2.01, M 2.47, H 2.06, E 2.96, S 2.32, D 2.68, N 2.8
G10: Y 1.79, V 1.54, P 2.31, Q 3.48, A 2.27, M 2.11, E 2.54, D 2.75, H 2.71, S 2.39, W 1.1, K 2.53, L 1.96, N 3.64
C2: N 2.93, T 3.25, Q 2.33, A 2.58, L 2.94, E 4.7, Y 2.61, F 3.12, V 2.03, H 1.99, R 3, D 3.12
I3: R 2.49, V 3.26, H 2.75, S 2.3, Q 3.06, G 3.29, D 4.02, M 2.9, Y 2.16, C 1.96, E 3.95, W 2.19
E6: C 1.77, R 2, D 1.91, S 2.86, N 1.59, M 2.89, K 2.12, I 2.23, Q 1.73, F 1.46, W 1.35, V 1.8, T 1.74, P 1.48, A 1.37, L 2.21, Y 1.71, G 1.98
P21: W 1.9, G 2.54, S 3.73, H 2.89, R 2.97, E 3.52, N 3.13, I 2.46, V 2.28, L 1.42, T 2.91, C 2.07, F 1.7, D 4.22, M 1.94
F22: Q 3.1, P 4.32, I 3.65, C 3.81, R 4.21, H 4.33, E 4.79, A 3.58, G 4.37, N 4.5, D 5.23, T 4.5, Y 2.42, L 3.74
I9: T 3.21, Y 2.58, Q 2.65, V 2.73, C 2.38, S 2.82, F 1.9, R 2.71, M 2.03, W 1.58, G 2.58
E24: H 1.54, F 1.74, C 2.7, Y 1.69, P 2.01, K 1.72, Q 1.75, W 1.61, G 1.59, S 2.15, I 2.72, T 1.21, M 1.45, V 1.71
E15: I 1.46, L 1.9, M 2.51, A 1.99, H 2, R 2.08, V 2.52, G 2.08, F 1.73, P 1.98, K 2.22, T 2.08, C 2.68
K18: V 2.63, P 3.07, W 2.47, Y 2.16, H 2.34, F 2.12, M 1.65, S 3, T 2.6, Q 2.2, C 2.82
I17: R 2.1, P 2.54, S 3.17, D 3.1, F 2.36, H 2.16, T 3.17, W 1.67, G 2.38, Q 2.53
G19: I 1.54, M 1.67, L 1.87, W 2.27, R 1.63, S 2.43, E 3.45, A 2.15, V 2.09, Q 2.37, D 3.21, F 1.8, P 1.99
F23: V 1.85, P 4.07, D 4.86, S 1.93, I 2.47, C 1.8, R 1.72, Y 3.35, L 2.52, N 4.2, A 1.78, K 2.19, H 2.69, M 1.07, W 2.02
F1: C 2.84, S 4.34, P 4.45, N 4.4, Q 4.91, V 3.77, D 4.9, R 5.09, A 4.85, W 3.19, I 3.24, H 4.55, K 4.3
H20: E 4.12, F 2.62, L 2.69, Y 2.47, D 2.53, C 1.54, M 2.71, A 3.79, N 2.67, K 3.41, R 2.35, T 3.83, I 2.95, V 3.19
S12: E 2.52, A 1.98, V 2, H 2.56, K 2.78, L 1.9, W 1.5, Y 1.99, Q 2.2, N 2.55, I 2.35, P 2.32, R 2.35, G 1.91, F 1.84, M 1.72, D 2.32, T 2.52
E16: Y 1.51, Q 2.54, T 2.35, P 2.42, A 3.21, S 1.85, C 2.23, I 1.55, G 2.67, R 2.3, F 2.25, D 1.89, V 1.87
G13: Q 2.44, M 2.12, W 2.87, I 2.47, P 2.68, E 3.12, C 2.1, L 2.22, V 1.97, N 2.73
